88 sequences from the Immune Epitope Database (IEDB) can be followed below.

pKd: −log10 of the molar value. Where only a bound is given, the exact number is not on record here.

Targets include HLA-B*40:01; HLA-B*15:01; HLA-A*26:01; HLA-A*24:03; HLA-A*02:01; HLA-B*08:01; HLA-B*39:01; HLA-B*07:02; HLA-A*03:01; HLA-B*27:05; HLA-B*58:01; HLA-A*01:01.
Holding throughout (assay): IEDB peptide-MHC binding, purified MHC/direct/fluorescence; filed as Kd, often an IC50 or EC50 that approximates it; ≥ and ≤ were set here for values at or beyond the usual limits of such assays
What all share (conditions): source organism: West Nile virus

For AEVEEHRTV, in the assay with HLA-B*40:01, the pKd (commonly −log10 of the Kd, conventionally taken in molar units) is 6.89.
Consider AMFEEQNQW, for which the pKd with HLA-B*15:01 is 7.77.
As to DTITNVTTM, the pKd in the assay with HLA-A*26:01 was 8.40.
Turning to ETTNWLWAF, the negative logarithm of the Kd (pKd) with HLA-A*26:01 was 8.70. This pKd is 0.30 log units higher than that of the sequence before.
As for ETTNWLWTF, the pKd with HLA-A*26:01 is 8.30. This pKd lies 0.40 log units lower than the previous one.
Same read-out and setting: in the case of EVMTAVGLM it was 8.30.
The sequence EYVGKTVWF gave a pKd with HLA-A*24:03 of 7.59.
Sequence FCIKVLCPY gave a pKd with HLA-A*26:01 of 6.50.
On to FLAVGGVLL, for which the pKd in the assay with HLA-A*02:01 is 8.52.
In the assay with HLA-B*08:01, FTRYRKEAI gave a pKd of 7.41.
In turn, FVDVGVSAL gave a pKd in the assay with HLA-B*39:01 of 7.28.
For GGRAHRMAL, the pKd in the assay with HLA-B*07:02 was 7.20.
GLYKSAPRR gave a pKd in the assay with HLA-A*03:01 of 7.43.
As to GMSWITQGL, the pKd with HLA-A*02:01 is not below 9.00.
As for GRGPIRFVL, in the assay with HLA-B*39:01, the pKd was 6.79.
Sequence GRLVTVNPF showed a pKd in the assay with HLA-B*27:05 of 7.12.
In the case of GRMEKKTWK, the pKd with HLA-B*27:05 was 6.99.
GSRAIWFMW had a negative-log Kd (pKd) with HLA-B*58:01 of 7.06.
In the assay with HLA-B*15:01, GVIMPNGSY showed a negative logarithm of the Kd (pKd) of 7.54.
On to GYISTRVEL, for which the pKd with HLA-A*24:03 is 7.35.
Turning to HSRRSRRSL, the negative logarithm of the Kd (pKd) in the assay with HLA-B*07:02 was 7.33.
The sequence HTTKGAALM showed a pKd in the assay with HLA-A*26:01 of 7.64.
As for ILLWEIPDV, the pKd with HLA-A*02:01 was not below 9.00.
In the case of ILRNPGYAL, in the assay with HLA-B*08:01, the pKd is 6.32.
Sequence IPTAAGKNL had a pKd in the assay with HLA-B*07:02 of 6.82.
As for ISGKSTDMW, the pKd in the assay with HLA-B*58:01 was 7.04.
Turning to ITYTDVLRY, the negative-log Kd (pKd) with HLA-A*01:01 was 8.52.
In the assay with HLA-B*40:01, KENGVDLSV had a pKd of 8.52.
For KIRNRIERL, the pKd in the assay with HLA-B*08:01 was 6.60.
Turning to KSFLVHREW, the pKd with HLA-B*58:01 is 7.96.
Consider KSYAQMWLL, for which the negative logarithm of the Kd (pKd) with HLA-B*58:01 is 8.10. The pKd values of the last two sequences are within 0.2 log units of each other.
The sequence KVAAAGVSY showed a pKd with HLA-B*15:01 of 6.78.
LAALGDTAW: the pKd with HLA-B*58:01 is 7.18.
In the assay with HLA-B*58:01, LAVSAYTPW gave a negative logarithm of the Kd (pKd) of 7.96.
On to LLLLVAPAY, for which the pKd with HLA-B*15:01 is 7.06.
LLVAPAYSF showed a pKd in the assay with HLA-B*15:01 of 6.86. Against the preceding sequence, the pKd is 0.20 log units lower.
In the case of LMNDPGAPW, the pKd with HLA-B*15:01 is 7.40.
In the case of LRWLVERRF, the pKd with HLA-B*27:05 was 7.01.
As for LTYRHKVVK, in the assay with HLA-A*03:01, the pKd was 7.03.
In the case of LYAVTTAVL, the pKd in the assay with HLA-A*24:03 was 8.10.
In the case of MLRKKQITV, in the assay with HLA-B*08:01, the pKd was 7.46.
In the case of MTKEEFTRY, the pKd in the assay with HLA-A*01:01 is 6.61.
In the assay with HLA-A*26:01, MTRGLLGSY gave a pKd of 8.10.
Turning to MVGVGSLVK, the negative-log Kd (pKd) with HLA-A*03:01 is 6.42.
NEAKVLELL had a negative logarithm of the Kd (pKd) with HLA-B*40:01 of 7.55.
Consider NEVEVITKL, for which the pKd in the assay with HLA-B*40:01 was 7.10. This pKd is 0.45 log units lower than that of the sequence before.
For the sequence QEGALHQAL, the pKd with HLA-B*40:01 is 7.85.
As for QPAFMVASF, the pKd in the assay with HLA-B*07:02 is 7.15.
With QTDNQLAVF, in the assay with HLA-A*01:01, the pKd was 6.77.
In turn, RAWNSGYEW gave a pKd in the assay with HLA-B*58:01 of 7.80.
As to REDIWCGSL, the pKd with HLA-B*40:01 was 8.15.
In turn, REHSGNEIV had a pKd with HLA-B*40:01 not below 9.00.
As for RESFGVESF, the pKd with HLA-B*40:01 is not below 9.00.
The same measure, in the same setting: in the case of REWFMDLNL it was 8.05.
In the assay with HLA-A*24:03, RFVLALLAF showed a pKd of 6.75.
RLARAIIEL gave a pKd in the assay with HLA-A*02:01 of 8.52.
The sequence RPAADGKTV showed a pKd with HLA-B*07:02 of 7.01.
The sequence RPAVGGKTV showed a pKd with HLA-B*07:02 of 7.44.
As to RRFLEPVGK, the negative-log Kd (pKd) with HLA-B*27:05 is 7.30.
Same read-out and setting: in the case of RRLAATTEK it was 7.43; in that of RRSRRSLTV, 6.41.
Regarding RRWCFDGPR, the negative-log Kd (pKd) in the assay with HLA-B*27:05 was 7.96.
Regarding RRYGGGLVR, the pKd with HLA-B*27:05 is 7.21.
In the assay with HLA-B*07:02, RVIDSRKSV showed a pKd of 7.01.
In the assay with HLA-B*58:01, RVLEMVEDW had a pKd of 8.40.
Sequence RVYSDHQAL had a pKd with HLA-B*07:02 of 6.69.
In the assay with HLA-A*24:03, RYLVKTESW showed a pKd of 8.40.
Take SLFGGMSWI: the pKd in the assay with HLA-A*02:01 was not below 9.00.
For the sequence SYHDRRWCF, in the assay with HLA-A*24:03, the pKd was 8.05.
Take SYTLKLGEY: the pKd in the assay with HLA-A*24:03 was 6.84. Compared with the last sequence, the pKd is 1.21 log units lower.
Regarding TLARGFPFV, the negative logarithm of the Kd (pKd) in the assay with HLA-A*02:01 was 8.52.
The sequence TRAVGKPLL had a pKd with HLA-B*39:01 of 6.85.
As to TVSPSAPTY, in the assay with HLA-B*15:01, the negative logarithm of the Kd (pKd) is 7.17.
As for TYGVCAKAF, the pKd in the assay with HLA-A*24:03 was 7.89.
In the case of VEGLGLQKL, in the assay with HLA-B*40:01, the negative logarithm of the Kd (pKd) was 6.64.
In the assay with HLA-B*15:01, VIQLNRKSY showed a pKd of 6.98.
VLCPYMPKV showed a pKd with HLA-A*02:01 of 7.68.
Consider VLRKRWTAK, for which the pKd with HLA-A*03:01 is 7.37.
In the assay with HLA-A*03:01, VLSLIGLKR showed a pKd of 6.32. Against the preceding sequence, the pKd is 1.05 log units lower.
Turning to VLWDTPSPK, the pKd with HLA-A*03:01 was 6.93.
For VSRLEHQMW, in the assay with HLA-B*58:01, the pKd was 7.25.
In the assay with HLA-A*01:01, VVEKQSGLY gave a pKd of 8.22.
On to WEALDTMYV, for which, in the assay with HLA-B*40:01, the pKd is 7.57.
The sequence WFMWLGARF had a negative-log Kd (pKd) with HLA-A*24:03 of 8.00.
WMILRAISF had a pKd with HLA-A*24:03 of 6.92. Against the preceding sequence, the pKd is 1.08 log units lower.
Take WYDWQQVPF: the pKd in the assay with HLA-A*24:03 is 8.15.
YQPEREKVY: in the assay with HLA-B*15:01, the pKd was 7.10.
On to YTMDGEYRL, for which the pKd with HLA-B*39:01 was 6.81.
